Assays:
[1] = target: CXCL10 (as tested against T17; species not stated)
[2] = target: CXCL12 (hSDF-1b) (Homo sapiens) (UniProt P48061)
[3] = target: XCL1 (as tested against T17; species not stated)
human CCL2 (human) [4] = target: human CCL2 (human) (UniProt P13500); assay: SPR, T17 amine-coupled to CM5 chip
murine CCL2 (mouse) [5] = target: murine CCL2 (mouse) (UniProt P10148); assay: SPR, T17 amine-coupled to CM5 chip
murine CCL3 (mouse) [6] = target: murine CCL3 (mouse) (UniProt P10855); assay: SPR, T17 amine-coupled to CM5 chip
murine CCL3 (mouse), sequence (P10855 24-92 limits assumed): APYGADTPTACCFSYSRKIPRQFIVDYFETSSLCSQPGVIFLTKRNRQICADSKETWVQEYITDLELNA

CCL9 [7] = target: CCL9 (UniProt P51670); assay: SPR (Biacore T-100), T17 on CM5 chip; t1/2
CCL9, sequence (P51670 22-122 limits assumed): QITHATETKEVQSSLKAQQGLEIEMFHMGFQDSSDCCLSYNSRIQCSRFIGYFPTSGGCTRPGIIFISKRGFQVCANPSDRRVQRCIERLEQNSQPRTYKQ

human CCL2 (human) [8] = target: human CCL2 (human) (UniProt P13500); assay: SPR (Biacore T-100), T17 on CM5 chip; t1/2
murine CCL11 (mouse) [9] = target: murine CCL11 (mouse) (UniProt P48298); assay: SPR (Biacore T-100), T17 on CM5 chip; t1/2
murine CCL11 (mouse), sequence (P48298 24-97 limits assumed): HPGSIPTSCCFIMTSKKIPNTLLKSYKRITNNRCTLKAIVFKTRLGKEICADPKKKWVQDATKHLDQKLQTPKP

murine CCL12 (mouse) [10] = target: murine CCL12 (mouse) (UniProt Q62401); assay: SPR (Biacore T-100), T17 on CM5 chip; t1/2
murine CCL12 (mouse), sequence (Q62401 23-104 limits assumed): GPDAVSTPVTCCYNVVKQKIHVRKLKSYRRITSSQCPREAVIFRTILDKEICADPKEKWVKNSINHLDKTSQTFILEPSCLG

murine CCL2 (mouse) [11] = target: murine CCL2 (mouse) (UniProt P10148); assay: SPR (Biacore T-100), T17 on CM5 chip; t1/2
murine CCL20 (mouse) [12] = target: murine CCL20 (mouse) (UniProt O89093); assay: SPR (Biacore T-100), T17 on CM5 chip; t1/2
murine CCL20 (mouse), sequence (O89093 28-97 limits assumed): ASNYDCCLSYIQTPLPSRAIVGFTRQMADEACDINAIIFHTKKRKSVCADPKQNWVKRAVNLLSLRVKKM

murine CCL21 (mouse) [13] = target: murine CCL21 (mouse) (UniProt P84444); assay: SPR (Biacore T-100), T17 on CM5 chip; t1/2
murine CCL21 (mouse), sequence (P84444 24-133): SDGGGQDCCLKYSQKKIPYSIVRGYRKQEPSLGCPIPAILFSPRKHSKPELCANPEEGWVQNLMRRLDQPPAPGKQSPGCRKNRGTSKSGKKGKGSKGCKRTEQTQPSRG

murine CCL24 (mouse) [14] = target: murine CCL24 (mouse) (UniProt Q9JKC0); assay: SPR (Biacore T-100), T17 on CM5 chip; t1/2
murine CCL24 (mouse), sequence (Q9JKC0 27-119 limits assumed): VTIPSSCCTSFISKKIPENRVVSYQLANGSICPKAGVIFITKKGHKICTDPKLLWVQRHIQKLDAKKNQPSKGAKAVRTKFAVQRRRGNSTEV

murine CCL3 (mouse) [15] = target: murine CCL3 (mouse) (UniProt P10855); assay: SPR (Biacore T-100), T17 on CM5 chip; t1/2
murine CCL4 (mouse) [16] = target: murine CCL4 (mouse) (UniProt P14097); assay: SPR (Biacore T-100), T17 on CM5 chip; t1/2
murine CCL4 (mouse), sequence (P14097 24-92 limits assumed): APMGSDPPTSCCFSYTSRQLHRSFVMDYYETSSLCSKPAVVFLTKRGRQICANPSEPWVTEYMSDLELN

murine CCL5 (mouse) [17] = target: murine CCL5 (mouse) (UniProt P30882); assay: SPR (Biacore T-100), T17 on CM5 chip; t1/2
murine CCL5 (mouse), sequence (P30882 24-91 limits assumed): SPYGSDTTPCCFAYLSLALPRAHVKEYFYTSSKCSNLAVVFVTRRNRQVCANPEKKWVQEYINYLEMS

murine CCL8 (mouse) [18] = target: murine CCL8 (mouse) (UniProt Q9Z121); assay: SPR (Biacore T-100), T17 on CM5 chip; t1/2
murine CCL8 (mouse), sequence (Q9Z121 24-97 limits assumed): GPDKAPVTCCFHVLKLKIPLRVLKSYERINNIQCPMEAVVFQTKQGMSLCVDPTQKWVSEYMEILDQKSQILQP

CCL9 [19] = target: CCL9 (UniProt P51670); assay: SPR (Biacore T-100), T17 on CM5 chip; KD,eq
human CCL2 (human) [20] = target: human CCL2 (human) (UniProt P13500); assay: SPR (Biacore T-100), T17 on CM5 chip; KD,eq
murine CCL11 (mouse) [21] = target: murine CCL11 (mouse) (UniProt P48298); assay: SPR (Biacore T-100), T17 on CM5 chip; KD,eq
murine CCL12 (mouse) [22] = target: murine CCL12 (mouse) (UniProt Q62401); assay: SPR (Biacore T-100), T17 on CM5 chip; KD,eq
murine CCL2 (mouse) [23] = target: murine CCL2 (mouse) (UniProt P10148); assay: SPR (Biacore T-100), T17 on CM5 chip; KD,eq
murine CCL20 (mouse) [24] = target: murine CCL20 (mouse) (UniProt O89093); assay: SPR (Biacore T-100), T17 on CM5 chip; KD,eq
murine CCL21 (mouse) [25] = target: murine CCL21 (mouse) (UniProt P84444); assay: SPR (Biacore T-100), T17 on CM5 chip; KD,eq
murine CCL24 (mouse) [26] = target: murine CCL24 (mouse) (UniProt Q9JKC0); assay: SPR (Biacore T-100), T17 on CM5 chip; KD,eq
murine CCL3 (mouse) [27] = target: murine CCL3 (mouse) (UniProt P10855); assay: SPR (Biacore T-100), T17 on CM5 chip; KD,eq
murine CCL4 (mouse) [28] = target: murine CCL4 (mouse) (UniProt P14097); assay: SPR (Biacore T-100), T17 on CM5 chip; KD,eq
murine CCL5 (mouse) [29] = target: murine CCL5 (mouse) (UniProt P30882); assay: SPR (Biacore T-100), T17 on CM5 chip; KD,eq
murine CCL8 (mouse) [30] = target: murine CCL8 (mouse) (UniProt Q9Z121); assay: SPR (Biacore T-100), T17 on CM5 chip; KD,eq
CCL9 [31] = target: CCL9 (UniProt P51670); assay: SPR (Biacore T-100), T17 on CM5 chip; KD,kin
human CCL2 (human) [32] = target: human CCL2 (human) (UniProt P13500); assay: SPR (Biacore T-100), T17 on CM5 chip; KD,kin
murine CCL11 (mouse) [33] = target: murine CCL11 (mouse) (UniProt P48298); assay: SPR (Biacore T-100), T17 on CM5 chip; KD,kin
murine CCL12 (mouse) [34] = target: murine CCL12 (mouse) (UniProt Q62401); assay: SPR (Biacore T-100), T17 on CM5 chip; KD,kin
murine CCL2 (mouse) [35] = target: murine CCL2 (mouse) (UniProt P10148); assay: SPR (Biacore T-100), T17 on CM5 chip; KD,kin
murine CCL20 (mouse) [36] = target: murine CCL20 (mouse) (UniProt O89093); assay: SPR (Biacore T-100), T17 on CM5 chip; KD,kin

murine CCL2 (mouse), sequence (P10148 24-148 limits assumed): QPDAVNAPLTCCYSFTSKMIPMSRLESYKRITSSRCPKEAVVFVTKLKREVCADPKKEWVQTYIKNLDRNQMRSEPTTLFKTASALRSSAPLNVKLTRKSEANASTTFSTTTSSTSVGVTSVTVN
human CCL2 (human), sequence (P13500 24-99 limits assumed): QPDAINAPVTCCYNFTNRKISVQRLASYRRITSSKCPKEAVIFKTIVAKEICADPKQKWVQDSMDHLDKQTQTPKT
CXCL12 (hSDF-1b) (Homo sapiens), sequence (P48061 22-93): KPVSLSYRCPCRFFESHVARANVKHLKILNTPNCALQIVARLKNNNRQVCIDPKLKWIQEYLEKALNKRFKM

T17 chemokine decoy receptor of Rodent herpesvirus Texas (RHVT), C-terminal His tag (6 histidine residues) fusion
koff [1]: 0.0174 s⁻¹ | kon [1]: 812000 M⁻¹ s⁻¹ | koff [2]: 0.0173 s⁻¹ | kon [2]: 436000 M⁻¹ s⁻¹ | koff [3]: 0.0127 s⁻¹ | kon [3]: 1.23e+06 M⁻¹ s⁻¹ | complex half-life (human CCL2 (human) [4]): 26 s | complex half-life (murine CCL2 (mouse) [5]): 225 s | complex half-life (t1/2) (murine CCL3 (mouse) [6]): 90 s | t1/2 (CCL9 [7]): 23.3 s | t1/2 (human CCL2 (human) [8]): 26.2 s | t1/2 (murine CCL11 (mouse) [9]): 109 s | t1/2 (murine CCL12 (mouse) [10]): 17.5 s | t1/2 (murine CCL2 (mouse) [11]): 225 s | t1/2 (murine CCL20 (mouse) [12]): 36.1 s | t1/2 (murine CCL21 (mouse) [13]): 52.5 s | t1/2 (murine CCL24 (mouse) [14]): 131 s | t1/2 (murine CCL3 (mouse) [15]): 90.7 s | t1/2 (murine CCL4 (mouse) [16]): 32.7 s | t1/2 (murine CCL5 (mouse) [17]): 196 s | t1/2 (murine CCL8 (mouse) [18]): 33.9 s | Kd (CCL9 [19]): 39.1 nM | Kd (human CCL2 (human) [20]): 14.9 nM | Kd (murine CCL11 (mouse) [21]): 33.5 nM | Kd (murine CCL12 (mouse) [22]): 12.3 nM | Kd (murine CCL2 (mouse) [23]): 38.9 nM | Kd (murine CCL20 (mouse) [24]): 23.4 nM | Kd (murine CCL21 (mouse) [25]): 22.3 nM | Kd (murine CCL24 (mouse) [26]): 11.9 nM | Kd (murine CCL3 (mouse) [27]): 6.76 nM | Kd (murine CCL4 (mouse) [28]): 4.74 nM | Kd (murine CCL5 (mouse) [29]): 4.15 nM | Kd (murine CCL8 (mouse) [30]): 3.79 nM | Kd (CCL9 [31]): 18 nM | Kd (human CCL2 (human) [32]): 1.76 nM | Kd (murine CCL11 (mouse) [33]): 0.37 nM | Kd (murine CCL12 (mouse) [34]): 2.54 nM | Kd (murine CCL2 (mouse) [35]): 7.15 nM | Kd (murine CCL20 (mouse) [36]): 5.62 nM

From patent US20200164032A1
